What all share (assay): ELISA, 2.5 mM CaCl2
Assay [1] deals with T1, SARS-Cov-2 S D614G (SARS-CoV-2, UniProt P0DTC2 16-1213).
T1 construct: also called SARS-CoV-2 S protein (D614G); SARS-COV2 S Protein

The target in assay [2] is T1, SARS-Cov-2 S D614G. The source holds these as a separate data set.
Assay [3] addresses T1, SARS-Cov-2 S D614G. This is another data set of the same source.
In assay [4] the target is T1, SARS-Cov-2 S D614G. This is another data set of the same source.

“And” between values parts separate entries of the source, which are not always exact repeats. Equal values may be shown once. Read-outs that look alike come from different tables or passages of the source.

B1: VP019-F2 (multimer fraction F2 of VP019, V-TIM1-1 with V-IGG4-ADC-A-Fc) (Fc fusion)
chain: SVKVGGEAGPSVTLPCHYSGAVTSMCWNRGSCSLFTCQNGIVWTNGTHVTYRKDTRYKLLGDLSRRDVSLTIENTAVSDSGVYCCRVEHRGWFNDMKITVSLEIVGGGGSGGGGSGGGGSKYGPPCPPCPAPEAAGGPSVFLFPPKPKDTLMISRTPEVTCVVVDVSQEDPEVQFNWYVDGVEVHNAKTKPREEQFNSTYRVVSVLTVLHQDWLNGKEYKCAVSNKGLPSSIEKTISKCKGQPREPQVYTLPPSQEEMTKNQVSLTCLVKGFYPSDIAVEWESNGQPENNYKTTPPVLDSDGSFFLYSRLTVDKSRWQEGNVFSCSVMHEALHNHYTQKSLSLSLGK
notes: also called TM-G4-A-DC; VIT-307
As to B1, the EC50 in the assay with SARS-Cov-2 S D614G [1] is 0.9 µg/mL and 10.6 nM; in the assay with SARS-Cov-2 S D614G [2], 1.7 µg/mL; with SARS-Cov-2 S D614G [3], 21.1 nM.

B2: VP025-F4 (fraction 4 of VP025-CT, VP019/VP020 heterodimer, about 78% pure) (Fc fusion)
chain 1: SVKVGGEAGPSVTLPCHYSGAVTSMCWNRGSCSLFTCQNGIVWTNGTHVTYRKDTRYKLLGDLSRRDVSLTIENTAVSDSGVYCCRVEHRGWFNDMKITVSLEIVGGGGSGGGGSGGGGSKYGPPCPPCPAPEAAGGPSVFLFPPKPKDTLMISRTPEVTCVVVDVSQEDPEVQFNWYVDGVEVHNAKTKPREEQFNSTYRVVSVLTVLHQDWLNGKEYKCAVSNKGLPSSIEKTISKCKGQPREPQVYTLPPSQEEMTKNQVSLTCLVKGFYPSDIAVEWESNGQPENNYKTTPPVLDSDGSFFLYSRLTVDKSRWQEGNVFSCSVMHEALHNHYTQKSLSLSLGK
chain 2: ERLCHPCPWEWTFFQGNCYFMSNSQRNWHDSITACKEVGAQLVVIKSAEEQNFLQLQSSRSNRFTWMGLSDLNQEGTWQWVDGSPLLPSFKQYWNRGEPNNVGEEDCAEFSGNGWNDDKCNLAKFWICKKSAASCSGGGGSGGGGSGGGGSKYGPPCPPCPAPEAAGGPSVFLFPPKPKDTLMISRTPEVTCVVVDVSQEDPEVQFNWYVDGVEVHNAKTKPREEQFNSTYRVVSVLTVLHQDWLNGKEYKCAVSNKGLPSSIEKTISKCKGQPREPQVYTLPPSQEEMTKNQVSLTCLVKGFYPSDIAVEWESNGQPENNYKTTPPVLDSDGSFLLYSKLTVDKSRWQEGNVFSCSVMHEALHNHYTQKSLSLSLGK
notes: also called VP025-F4 (78% pure heterodimer)
For B2, the EC50 with SARS-Cov-2 S D614G [2] turned out to be 0.8 µg/mL; in the assay with SARS-Cov-2 S D614G [3], 10 nM.

B3: VP025-CT (co-transfected product of genes TM-G4-A-DC and CT-G4-B-DC, heterodimer mixture) (Fc fusion)
chain 1: SVKVGGEAGPSVTLPCHYSGAVTSMCWNRGSCSLFTCQNGIVWTNGTHVTYRKDTRYKLLGDLSRRDVSLTIENTAVSDSGVYCCRVEHRGWFNDMKITVSLEIVGGGGSGGGGSGGGGSKYGPPCPPCPAPEAAGGPSVFLFPPKPKDTLMISRTPEVTCVVVDVSQEDPEVQFNWYVDGVEVHNAKTKPREEQFNSTYRVVSVLTVLHQDWLNGKEYKCAVSNKGLPSSIEKTISKCKGQPREPQVYTLPPSQEEMTKNQVSLTCLVKGFYPSDIAVEWESNGQPENNYKTTPPVLDSDGSFFLYSRLTVDKSRWQEGNVFSCSVMHEALHNHYTQKSLSLSLGK
chain 2: ERLCHPCPWEWTFFQGNCYFMSNSQRNWHDSITACKEVGAQLVVIKSAEEQNFLQLQSSRSNRFTWMGLSDLNQEGTWQWVDGSPLLPSFKQYWNRGEPNNVGEEDCAEFSGNGWNDDKCNLAKFWICKKSAASCSGGGGSGGGGSGGGGSKYGPPCPPCPAPEAAGGPSVFLFPPKPKDTLMISRTPEVTCVVVDVSQEDPEVQFNWYVDGVEVHNAKTKPREEQFNSTYRVVSVLTVLHQDWLNGKEYKCAVSNKGLPSSIEKTISKCKGQPREPQVYTLPPSQEEMTKNQVSLTCLVKGFYPSDIAVEWESNGQPENNYKTTPPVLDSDGSFLLYSKLTVDKSRWQEGNVFSCSVMHEALHNHYTQKSLSLSLGK
notes: also called VP025-CT (heterodimer mixture)
For the molecule B3, the EC50 in the assay with SARS-Cov-2 S D614G [1] is 6.9 µg/mL and 82.5 nM; in the assay with SARS-Cov-2 S D614G [4] it was 4 µg/mL and 47.6 nM; with SARS-Cov-2 S D614G [2], 1.2 µg/mL; with SARS-Cov-2 S D614G [3] it was 13.8 nM.

B4: VP020 (V-CTLD-1 with V-IGG4-ADC-B-Fc) (Fc fusion)
chain: ERLCHPCPWEWTFFQGNCYFMSNSQRNWHDSITACKEVGAQLVVIKSAEEQNFLQLQSSRSNRFTWMGLSDLNQEGTWQWVDGSPLLPSFKQYWNRGEPNNVGEEDCAEFSGNGWNDDKCNLAKFWICKKSAASCSGGGGSGGGGSGGGGSKYGPPCPPCPAPEAAGGPSVFLFPPKPKDTLMISRTPEVTCVVVDVSQEDPEVQFNWYVDGVEVHNAKTKPREEQFNSTYRVVSVLTVLHQDWLNGKEYKCAVSNKGLPSSIEKTISKCKGQPREPQVYTLPPSQEEMTKNQVSLTCLVKGFYPSDIAVEWESNGQPENNYKTTPPVLDSDGSFLLYSKLTVDKSRWQEGNVFSCSVMHEALHNHYTQKSLSLSLGK
notes: also called CT-G4-B-DC; VIT-308
For B4, the EC50 in the assay with SARS-Cov-2 S D614G [1] is 55.6 µg/mL and 641 nM; with SARS-Cov-2 S D614G [2] it was 4.5 µg/mL; with SARS-Cov-2 S D614G [3], 52.5 nM.

For the origin of these results see patent US20230338465A1 (VITRUVIAE, published 2023).
